Experimental data: FireProtDB (doi:10.1021/bi00014a029)

Conditions: Meleagris gallopavo, Thermal, Potassium phosphate/Potassium acetate 10 mM/10 mM/
[1] = pH 1.5, CD, reversible: yes (82%)
[2] = pH 1.99, DSC, reversible: yes (91%)
[3] = pH 2.1, CD, reversible: yes (89%)
[4] = pH 2.5, CD, reversible: yes (85%)
[5] = pH 2.52, DSC, reversible: yes (90%)
[6] = pH 2.56, DSC, reversible: yes (78%)
[7] = pH 3.46, DSC, reversible: yes (90%)
[8] = pH 3.48, DSC, reversible: yes (81%)
[9] = pH 3.94, DSC, reversible: yes (87%)
[10] = pH 4.51, DSC, reversible: yes (84%)
[11] = pH 4.96, DSC, reversible: yes (100%)

Sequence of Ovomucoid wild type, P68390 (P68390 whole entry): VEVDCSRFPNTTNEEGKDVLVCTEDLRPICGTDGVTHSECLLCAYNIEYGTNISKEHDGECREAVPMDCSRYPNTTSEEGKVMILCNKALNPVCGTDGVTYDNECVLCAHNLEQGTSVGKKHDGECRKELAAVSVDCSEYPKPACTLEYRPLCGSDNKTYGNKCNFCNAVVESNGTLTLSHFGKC

With Ovomucoid wild type, P68390 the Tm [1] was 60.5 °C, the “unfolding enthalpy (van 't Hoff)” value [1] was 171 kJ/mol and the Tm [2] was 63.1 °C. For the same substance, the “unfolding enthalpy (calorimetric)” value [2] was 185 kJ/mol, the “unfolding enthalpy (van 't Hoff)” value [2] was 187 kJ/mol and the Tm [3] was 62.7 °C. For the same substance, the “unfolding enthalpy (van 't Hoff)” value [3] was 179 kJ/mol, the Tm [4] was 66.2 °C and the “unfolding enthalpy (van 't Hoff)” value [4] was 183 kJ/mol. For the same substance, the Tm [5] was 68.5 °C, the “unfolding enthalpy (calorimetric)” value [5] was 200 kJ/mol and the “unfolding enthalpy (van 't Hoff)” value [5] was 206 kJ/mol. For the same substance, the Tm [6] was 65.7 °C, the “unfolding enthalpy (calorimetric)” value [6] was 190 kJ/mol and the “unfolding enthalpy (van 't Hoff)” value [6] was 190 kJ/mol. The Tm [7] was 78.7 °C, the “unfolding enthalpy (calorimetric)” value [7] was 201 kJ/mol and the “unfolding enthalpy (van 't Hoff)” value [7] was 208 kJ/mol. The Tm [8] was 78.7 °C, the “unfolding enthalpy (calorimetric)” value [8] was 209 kJ/mol and the “unfolding enthalpy (van 't Hoff)” value [8] was 213 kJ/mol. For the same substance, the Tm (pH 3.51, DSC) was 80.8 °C, the “unfolding enthalpy (calorimetric)” value (pH 3.51, DSC) was 230 kJ/mol and the “unfolding enthalpy (van 't Hoff)” value (pH 3.51, DSC) was 242 kJ/mol. The Tm [9] was 85.7 °C, the “unfolding enthalpy (calorimetric)” value [9] was 231 kJ/mol and the “unfolding enthalpy (van 't Hoff)” value [9] was 220 kJ/mol. The Tm [10] was 85.2 °C, the “unfolding enthalpy (calorimetric)” value [10] was 240 kJ/mol and the “unfolding enthalpy (van 't Hoff)” value [10] was 236 kJ/mol. The Tm [11] was 87.8 °C and the “unfolding enthalpy (calorimetric)” value [11] was 261 kJ/mol.
